Results on one protein are retold here after article PMC8317047, “Characterisation of a hyperthermophilic transketolase from Thermotoga maritima DSM3109 as a biocatalyst for 7-keto-octuronic acid synthesis” (Organic & Biomolecular Chemistry, 2021).

Substrate in data set [1]: O=C(O)C(=O)CO
In words: purified protein. The settings on record: apparent, GA constant at 50 mM, ThDP 2.4 mM, MgCl2 9 mM, TEA 2 mM pH 7, 65 °C.

Substrate in data set [2]: O=CCO
Put plainly: purified protein. The data set is classed as biochemical, Thermotoga maritima. The settings on record: apparent, LiHPA constant at 50 mM, ThDP 2.4 mM, MgCl2 9 mM, TEA 2 mM pH 7, 65 °C.

B1: TKtmar (Thermotoga maritima MSB8) (protein)
chain: MERFPYEKLPESELKELKELGRLCRGDILKMTYIANSGHPGGSMSSIDLYLTVFKYAKLRPVDDPARDRIVISHGHTSPGVYAAMARLGFVDLDEVLAGFRHPASVFEGHVTRGVGIIDWTTGNLGQGLSAGLGFALASRFTGKDYHVFVLMSDAEQAKGQVAEARRVAKKYGVTNLTVIIDYNDAQISGRARDVMPVNIKENYLADGWRVIEIDGHDYEQIYLALKEAVEDELNPVAIIAKTVMGKGVSFMENEVKYHGKPLNREELEKALAELGIENDVDVYIEKRKQLPVEKHKKVYKTYPIKIDTGEPITYTSPTDNRSAFGKAILDLVKKNVNNPETTPIVAVDCDLKGSVKLDLLDKEFPERLLEVGVQEHNAAAMAGALSAEGVITFFADFGVFGISETYNQHRLNAINGTNLKVVVTHCGLNVGEDGKTHHGLDYVSGPMNWYGFKVIVPGDPNQTDRVVRYAAKEYGNFVIAMGRSKLPIILDENGKPFFGEGYTFEYGKIDVVRKGDDAVIITYGSTLCEAVNAADELKKEGVNVAVLNVSCPVDLDIETLKMVDGKPVLVVEDHNVFTGLGSFLGTTLLENGIIPKKYVRVGVPEFAVSGSYTMLYKLYGLDKDGIISRLREML
notes: full length with C-terminal His6 tag, pET-29:SacB-SapI, E. coli BL21(DE3), Ni-NTA purified
In general, Km refers to the concentration of substrate that gives half-maximal velocity. As a reminder, the Vmax is the top rate of the reaction or transport when substrate is in excess. As usually defined, the kcat is the number of substrate molecules converted per active site and unit of time at saturation. What is called kcat/Km is the second-order rate constant that governs catalysis at low substrate concentration. In the case of B1, in the data set “purified protein [1]”, the Km is listed as 53.8 ± 4.1 mM, the Vmax is 330 µM/min, the kcat worked out at 0.77 s⁻¹ and the kcat/Km was determined as 14.4 M⁻¹ s⁻¹. Moreover, in the data set “purified protein [2]”, the Km was 3.6 ± 0.4 mM, the Vmax was determined as 190 µM/min, the kcat came out at 0.45 ± 0.03 s⁻¹ and the kcat/Km was found to be 126 ± 6 M⁻¹ s⁻¹.
